Results reported in patent US20240052381A1, “BIOSYNTHESIS OF VANILLIN FROM ISOEUGENOL” (BASF SE, priority 2020, published 2024).

Test: In vitro enzyme assay: formation of vanillin with isoeugenol as the substrate
Type: biochemical
Conditions: purified recombinant protein; 10 mM isoeugenol, pH 7.0, 30° C., 10 min; negative control heat-denatured enzyme gave no vanillin
Description: The enzyme activity of the putative isoeugenol monooxygenase was assayed by measuring the formation of vanillin with isoeugenol as the substrate. The reaction mixture contained 10 mM isoeugenol, 100 mM potassium phosphate buffer (pH 7.0), 10% (v/v) ethanol and an appropriate amount of enzyme, in a total volume of 1 ml. The reaction was started, by adding isoeugenol as ethanol solution, carried out at 30° C. for 10 min with reciprocal shaking (160 strokes min^−1) and stopped with the addition of 1 ml of methanol. After centrifugation at […], the supernatant was analyzed by HPLC for the determination of isoeugenol and vanillin and vanillyl alcohol. VpIEM enzyme treated in boiling water for 5 minutes was used as the negative control.
HPLC analysis of isoeugenol and vanillin was carried out with a Vanquish Ultimate 3000 system. Intermediates were separated by reverse-phase chromatography on a Dionex Acclaim 120 C18 column (particle size 3 μm; 150 by 2.1 mm) with a gradient of 0.15% (volume/volume) acetic acid (eluant A) and methanol (eluant B) in a range of 60 to 100% (vol/vol) eluant B and at a flow rate of 0.4 ml/min. For quantification, all intermediates were calibrated with external standards. The compounds were identified by their retention times, as well as the corresponding spectra, which were identified with a diode array detector in the system.

B1: VpIEM: putative isoeugenol monooxygenase from Violaceomyces palustris, expressed in E. coli and purified (protein, listed as Violaceomyces paulstris)
chain: MAPAPTVQDAAPVAVAVPSKATNKGSFVHPTDILPSGWPTATDLSGGAQPRRFEGTIYDVMVRGTIPKELHGTFYRIMPDYAEAPTYYKGGELNAPIDGDGTVAAFRFKDGNVDYRQRFVETDRFKVERRARKSMYGLYRNPYTHHPCVRQTVDSTANTNVVMHAGRFLAMKENGNAYELDPHTLKTLGYNPFKLPSKTMTAHPKQDAVTGNLVGFGYEAKGLATKDVYYFEVDTQGNIVHDLWLEAPWCAFIHDCALTPNYLVLMLWPFEADIERMKAGGHHWAYDYDKPITWITIPRGAKSKDEVKYWYWKNGMPIHTAAGYEDEKGRIIIDSSLVHGNAFPFFPPDSEEQRKRQEADGTPIAQFVRWTIDPSKDPNERLPDPEVVLDTPSEFPQIDNRFMGKEYSSAFINVFMPDRSDTGKNVFQGLNGLCHYRRKEGTADFYYAGDNCLIQEPVFSPRSKDAPEGDGFVLAIVDRLDANRSEVVIIDTRDFTKAVAAVQLPFAIRSGIHGQWIQGNTIPDFDTRGLVDLPKEEHWAPPEASAYDPNM
modifications: (1)..(551) Amino Acid Sequence of VpIEM
conversion of isoeugenol to vanillin (enzyme activity, HPLC): able to catalyze the conversion of isoeugenol to vanillin
